Our source for the binding values is paper PMC4310594.

The data set concerns the target T1, RamA (Klebsiella pneumoniae (Ecl8?)) (UniProt Q48413).
T1 sequence: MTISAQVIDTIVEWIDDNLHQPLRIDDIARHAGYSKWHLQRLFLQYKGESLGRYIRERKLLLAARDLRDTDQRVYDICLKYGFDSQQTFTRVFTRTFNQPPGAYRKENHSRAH
In words: EMSA. Background: A gel shift assay detects complexes by their altered migration in electrophoresis.

Turning to “GCACTTCAACTAAATTCGCCTGAGTTTGGCTCATAAAATCATCCTTACTAAACACCTGACGGGCAAGCATGGCCCTTTCTTGCGCCACAATCACAACATTTTTACAGAATCTTACCTGCACAGGTTAGCGAAAGCTGGCATTTGTTTTACTTTTGGCACACATAAAGTCAAAATTAAGAATTCGTTACGCTGCGTAGGGATAACCCAGCGAGGCGACGATTATACCTGAAG (double strand) [yrbF promoter]”, the binding result is “binds”.

Regarding “GCCTGCATAATCGTTTCCTGACAAAAAAGGGTATTGTGACCGATAGTCGCCCACTTGCAAAACCTCTCTGCGCGGTTGGTCATTACCCACCGCACAAATGGGACGTGTTTTTTCGGCTGAAATCGTTACAATCAGGAAATCATACTATCTGGAGTGAACCATGTTAGAGCTTTTGAAAAGTCTGGTTTTTGCGGTCATCATGGTACCGGTGGTGATGGCGGTCATCCTGGGACTGATTTACGGTCTTGGCGAAGTGTTCAAC (double strand) [ybhT promoter]”, the binding result was “binds”.

Regarding “GGAAACGATTGCCAGGACTGGTGCTTCAGGCCTGATAAACCGCTCACTTTGTTAACAACAGTGCTCAGATTTTAATGCATTATTAAAGATGCAGCTTTTCTGGCTGGCGCGTCCAGGATGCGCCAGGCTGGAAGAAGACCTTCAATCTGATGACGATGCTGTAGCAAAGTGAGCCTTTATGACTGACAAATCTGTTCCATTCTCGGTGCTCGATCTGGCGCCGATCCCGCAAGGATCTTCTGCCAAAGAAGCCTTTACCCA (double strand) [yhbW promoter]”, the binding entry is “binds”.
